Reference: patent US20250188166A1 (BRIGHT PEAK THERAPEUTICS, published 2025)

T1: IL-18R on HEK-Blue IL18R reporter cells (UniProt Q13478 19-541; O95256 20-599)
T1 sequence (looked up) 1: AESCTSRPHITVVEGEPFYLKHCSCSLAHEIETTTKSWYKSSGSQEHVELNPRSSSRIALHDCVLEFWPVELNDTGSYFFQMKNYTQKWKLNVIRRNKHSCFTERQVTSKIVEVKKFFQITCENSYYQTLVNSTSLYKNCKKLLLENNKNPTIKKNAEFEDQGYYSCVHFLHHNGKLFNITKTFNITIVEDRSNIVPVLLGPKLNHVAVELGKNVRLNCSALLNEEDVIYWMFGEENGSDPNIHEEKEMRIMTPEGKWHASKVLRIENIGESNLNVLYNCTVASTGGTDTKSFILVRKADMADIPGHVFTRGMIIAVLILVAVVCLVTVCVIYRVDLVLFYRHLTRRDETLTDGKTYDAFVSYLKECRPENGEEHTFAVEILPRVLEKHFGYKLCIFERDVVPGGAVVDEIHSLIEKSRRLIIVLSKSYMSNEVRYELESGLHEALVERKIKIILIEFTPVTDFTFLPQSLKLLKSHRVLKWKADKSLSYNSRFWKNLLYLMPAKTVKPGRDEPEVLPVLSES
T1 sequence (looked up) 2: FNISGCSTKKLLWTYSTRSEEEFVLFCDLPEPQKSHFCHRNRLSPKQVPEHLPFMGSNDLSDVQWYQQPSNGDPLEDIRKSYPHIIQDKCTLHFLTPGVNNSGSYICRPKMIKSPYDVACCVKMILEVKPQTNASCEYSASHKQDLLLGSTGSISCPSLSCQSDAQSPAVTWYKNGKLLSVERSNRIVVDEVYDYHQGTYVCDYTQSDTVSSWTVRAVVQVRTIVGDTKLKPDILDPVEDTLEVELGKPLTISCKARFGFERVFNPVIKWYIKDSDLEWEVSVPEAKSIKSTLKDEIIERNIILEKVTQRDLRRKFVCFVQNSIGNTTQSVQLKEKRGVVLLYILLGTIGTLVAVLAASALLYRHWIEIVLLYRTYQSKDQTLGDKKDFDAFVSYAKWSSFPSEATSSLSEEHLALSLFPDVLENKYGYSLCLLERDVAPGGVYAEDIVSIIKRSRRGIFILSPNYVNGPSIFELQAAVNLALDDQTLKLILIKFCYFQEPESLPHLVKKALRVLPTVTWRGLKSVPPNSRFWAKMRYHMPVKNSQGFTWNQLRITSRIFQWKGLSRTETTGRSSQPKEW


The binders below were run against T1, IL-18R on HEK-Blue IL18R reporter cells (assay: cell-based or functional assay).

Row | Binder | EC50, HEK-Blue IL18R SEAP reporter
1 | IL-18 polypeptide C142 (ligand) MFGKLKSKLSIIRNLNDQVLFIDQGNRPLFEDMTDSDARDNAPRTIFIISMYADSQPRGMAVAISVKCEKISTLSAENKIISFKEMNPPDNIKDTKSDIIFFQRSVPGHDNKMQFESSSYEGYFLAAEKERDLFKLILKKEDELGDRSIMFTVQNED | 0.02 pM
2 | IL-18 polypeptide C143 (ligand) YFGKLESKLSIIRNLNDQVLFIDQGNRPLFEDMTDSDARDNAPRTIFIISMYADSQPRGMAVTISVKCEKISTLSAENKIISFKEMNPPDNIKDTKSDIIFFQRSVPGHDNKMQFESSSYEGYFLAAEKERDLFKLILKKEDELGDRSIMFTVQNED | 0.98 pM
3 | IL-18 polypeptide C146 (SEQ ID NO: 68) (ligand) YFGKLESKLSIIRNLNDQVLFIDQGNRPLFEDMTDSDARDNAPRTIFIISGYADSQPRGMAVTISVKCEKISTLSAENKIISFKEMNPPDNIKDTKSDIIFFQRSVPGHDNKMQFESSSYEGYFLAAEKERDLFKLILKKEDELGDRSIMFTVQNED | 0.8 pM
4 | IL-18 polypeptide C148 (ligand) YAGKLESKLSIIRNLNDQVLFIDQGNRPLFEDMTDSDARDNAPRTIFIISMYADSQPRGMAVTISVKCEKISTLSAENKIISFKEMNPPDNIKDTKSDIIFFQRSVPGHDNKMQFESSSYEGYFLAAEKERDLFKLILKKEDELGDRSIMFTVQNED | 7.28 pM
5 | IL-18 polypeptide C150 (ligand) YFGKLESKLSIIRNLNDQVLFIDQGNRPLFEDMADSDARDNAPRTIFIISMYADSQPRGMAVTISVKCEKISTLSAENKIISFKEMNPPDNIKDTKSDIIFFQRSVPGHDNKMQFESSSYEGYFLAAEKERDLFKLILKKEDELGDRSIMFTVQNED | 0.7 pM
6 | IL-18 polypeptide C153 (ligand) YFGKLESKLSIIRNLNDQVLFIDQGNRPLFEDMTDSAARDNAPRTIFIISMYADSQPRGMAVTISVKCEKISTLSAENKIISFKEMNPPDNIKDTKSDIIFFQRSVPGHDNKMQFESSSYEGYFLAAEKERDLFKLILKKEDELGDRSIMFTVQNED | 14.1 pM
7 | IL-18 polypeptide C151 (ligand) YFGKLESKLSIIRNLNDQVLFIDQGNRPLFEDMTASDARDNAPRTIFIISMYADSQPRGMAVTISVKCEKISTLSAENKIISFKEMNPPDNIKDTKSDIIFFQRSVPGHDNKMQFESSSYEGYFLAAEKERDLFKLILKKEDELGDRSIMFTVQNED | 13.1 pM
8 | IL-18 polypeptide C152 (ligand) YFGKLESKLSIIRNLNDQVLFIDQGNRPLFEDMTDADARDNAPRTIFIISMYADSQPRGMAVTISVKCEKISTLSAENKIISFKEMNPPDNIKDTKSDIIFFQRSVPGHDNKMQFESSSYEGYFLAAEKERDLFKLILKKEDELGDRSIMFTVQNED | 0.25 pM
9 | IL-18 polypeptide C145 (ligand) YFGKLESKLSIIRNLNDQVLFIDQGNRPLFEDMTDSDARDNAPRTIFIISMYADAQPRGMAVTISVKCEKISTLSAENKIISFKEMNPPDNIKDTKSDIIFFQRSVPGHDNKMQFESSSYEGYFLAAEKERDLFKLILKKEDELGDRSIMFTVQNED | 3.63 pM
10 | IL-18 polypeptide C144 (ligand) YFGKLESKLSIIRNLNDQVLFIDQGNRPLFEDMTDSDARDNAPRTIFIISMYADSQPRGMAVAISVKCEKISTLSAENKIISFKEMNPPDNIKDTKSDIIFFQRSVPGHDNKMQFESSSYEGYFLAAEKERDLFKLILKKEDELGDRSIMFTVQNED | 0.17 pM
11 | IL-18 polypeptide C147 (ligand) YFGKLESKLSIIRNLNDQVLFIDQGNRPLFEDMTDSDARDNAPRTIFIISMYAASQPRGMAVTISVKCEKISTLSAENKIISFKEMNPPDNIKDTKSDIIFFQRSVPGHDNKMQFESSSYEGYFLAAEKERDLFKLILKKEDELGDRSIMFTVQNED | 1 pM
12 | IL-18 polypeptide C149 (ligand) YFGKLESKLSIIRNLNDQVLFIDQGNRPLFADMTDSDARDNAPRTIFIISMYADSQPRGMAVTISVKCEKISTLSAENKIISFKEMNPPDNIKDTKSDIIFFQRSVPGHDNKMQFESSSYEGYFLAAEKERDLFKLILKKEDELGDRSIMFTVQNED | 6.6 pM

Further lines, results first:

Row | EC50, HEK-Blue IL18R SEAP reporter | Binder
13 | 1.95 pM | IL-18 polypeptide C157 (ligand) YFGKLESKLSIIRNLNDQVLFIDQGNRPLFEDMTDSDARDNAPRTIFIISMYADSQPRGMAVTISVKCEKISTLSAENKIISFKEMNPPDNIKDTKSDIIFFQRSVPGHDNKMQFESSSYEGYFLAAEKERALFKLILKKEDELGDRSIMFTVQNED
14 | 15.6 pM | IL-18 polypeptide C158 (ligand) YFGKLESKLSIIRNLNDQVLFIDQGNRPLFEDMTDSDARDNAPRTIFIISMYADSQPRGMAVTISVKCEKISTLSAENKIISFKEMNPPDNIKDTKSDIIFFQRSVPAHDNKMQFESSSYEGYFLAAEKERDLFKLILKKEDELGDRSIMFTVQNED
15 | 11.7 pM | IL-18 polypeptide C156 (ligand) YFGKLESKLSIIRNLNDQVLFIDQGNRPLFEDMTDSDARDAAPRTIFIISMYADSQPRGMAVTISVKCEKISTLSAENKIISFKEMNPPDNIKDTKSDIIFFQRSVPGHDNKMQFESSSYEGYFLAAEKERDLFKLILKKEDELGDRSIMFTVQNED
16 | 11.9 pM | IL-18 polypeptide C154 (ligand) YFGKLESKLSIIRNLNDQVLFIDQGNRPLFADMTDSAARDNAPRTIFIISMYADSQPRGMAVTISVKCEKISTLSAENKIISFKEMNPPDNIKDTKSDIIFFQRSVPGHDNKMQFESSSYEGYFLAAEKERDLFKLILKKEDELGDRSIMFTVQNED
17 | 0.52 pM | IL-18 polypeptide C155 (ligand) YFGKLESKLSIIRNLNDQVLFIDQGNRPLFEDMTDSDARANAPRTIFIISMYADSQPRGMAVTISVKCEKISTLSAENKIISFKEMNPPDNIKDTKSDIIFFQRSVPGHDNKMQFESSSYEGYFLAAEKERDLFKLILKKEDELGDRSIMFTVQNED
18 | 1.5 pM | IL-18 polypeptide C163 (ligand) YFGKLESKLSIIRNLNDQVLFIDQGNRPLFEDMTDSDARDNAPRTIFIISMYKDSQPRGMAVTISVKCEKISTLSAENKIISFKEMNPPDNIKDTKSDIIFFKRSVPGHDNKMQFESSSYEGYFLAAEKERDLFKLILKKEDELGDRSIMFTVQNED
19 | 2.02 pM | IL-18 polypeptide C160 (ligand) YFGKLESKLSIIRNLNDQVLFIDQGNRPLFEDMTDSDARDNAPRTIFIISMYADSQPRGMAVTISVKCEKISTLSAENKIISFKEMNPPDNIKDTKSDIIFFQRSVPGHANKMQFESSSYEGYFLAAEKERDLFKLILKKEDELGDRSIMFTVQNED
20 | 19.5 pM | IL-18 polypeptide C159 (ligand) YFGKLESKLSIIRNLNDQVLFIDQGNRPLFEDMTDSDARDNAPRTIFIISMYADSQPRGMAVTISVKCEKISTLSAENKIISFKEMNPPDNIKDTKSDIIFFQRSVPGADNKMQFESSSYEGYFLAAEKERDLFKLILKKEDELGDRSIMFTVQNED
21 | 2.3 pM | IL-18 polypeptide C162 (ligand) YFGKLESELSIIRNLNDQVLFIDQGNRPLFEDMTDSDARDNAPRTIFIISMYKDSQPRGMAVTISVKCEKISTLSAENKIISFKEMNPPDNIKDTKSDIIFFRRSVPGHDNKMQFESSSYEGYFLAAEKERDLFKLILKKEDELGDRSIMFTVQNED
22 | 2.01 pM | IL-18 polypeptide C161 (ligand) YFGKLESRLSIIRNLNDQVLFIDQGNRPLFEDMTDSDARDNAPRTIFIISMYKDSQPRGMAVTISVKCEKISTLSAENKIISFKEMNPPDNIKDTKSDIIFFERSVPGHDNKMQFESSSYEGYFLAAEKERDLFKLILKKEDELGDRSIMFTVQNED
23 | 3.14 pM | IL-18 polypeptide C164 (ligand) YFGKLESKLSIIRNLNDQVLFIDQGNRPLFEDMTDSDARDNAPRTIFIISMYKDHQPRGMAVTISVKCEKISTLSAENKIISFKEMNPPDNIKDTKSDIIFFQRSVPGHDNKMQFESSSYEGYFLAAEKERDLFKLILKKEDELGDRSIMFTVQNED
